Test results taken from patent US7932362B2, “Antibodies to NRIF3 proteins” (New York University, priority 1999, dated 2011).

What was measured:
endogenous RAR(s) = experiment: Transfection study, CAT reporter in HeLa cells, endogenous RAR(s); assay type: cell-based, human; conditions: 1 μM, HeLa cells without receptor expression vector, FIG. 6A
Excerpt: (§1) Transfection studies. Most reporters used in this study have been described previously, including IR-ΔMTV-CAT, DR4-ΔMTV-CAT, GH-TRE-tk-CAT, IR+3 (ERE)-ΔMTV-CAT (5, 25, 78). A DR1-ΔMTV-CAT reporter responsive to RXR was obtained from Ron Evans. A GRE/PRE-tk-CAT reporter was obtained from Gunther Schutz. The (IR)2-TATA-CAT was constructed in our laboratory by cloning two copies of the IR sequence (AGGTCA TGACCT) upstream of a TATA element derived from the tk promoter. A hVDR expression vector and the VDRE-ΔMTV-CAT containing the VDRE from the osteocalcin promoter were obtained from J. Wesley Pike. Vectors expressing cTRα, hRARα, hRXRα, rGR, hPR, and hER have been described previously (17, 25, 26, 50, 53, 81). The NRIF3 expression vector was constructed by cloning full length NRIF3 into a pExpress vector (25). Appropriate plasmids were transfected into HeLa cells by calcium phosphate co-precipitation using 25-100 ng of the receptors, 250-500 ng of the CAT reporters, and 750 ng of the NRIF3 or control pExpress vector. After transfection, cells were incubated at 37° C. (with or without cognate ligands) for 42 hours before being harvested. […] Relative CAT activity was determined as the percent acetylation of substrate per 30 μg of cell protein in a 15 hour incubation at 37° C. The results were calculated from duplicate or quadruplicate samples and the variation among samples was less than 10%.

cTRα = target: T1, cTRα (Gallus gallus, UniProt P04625); experiment: Transfection study, CAT reporter in HeLa cells, TR-mediated transactivation; assay type: cell-based, chicken; conditions: IR-ΔMTV-CAT reporter, 1 μM T3, FIG. 5A
T1 sequence (P04625 1-408): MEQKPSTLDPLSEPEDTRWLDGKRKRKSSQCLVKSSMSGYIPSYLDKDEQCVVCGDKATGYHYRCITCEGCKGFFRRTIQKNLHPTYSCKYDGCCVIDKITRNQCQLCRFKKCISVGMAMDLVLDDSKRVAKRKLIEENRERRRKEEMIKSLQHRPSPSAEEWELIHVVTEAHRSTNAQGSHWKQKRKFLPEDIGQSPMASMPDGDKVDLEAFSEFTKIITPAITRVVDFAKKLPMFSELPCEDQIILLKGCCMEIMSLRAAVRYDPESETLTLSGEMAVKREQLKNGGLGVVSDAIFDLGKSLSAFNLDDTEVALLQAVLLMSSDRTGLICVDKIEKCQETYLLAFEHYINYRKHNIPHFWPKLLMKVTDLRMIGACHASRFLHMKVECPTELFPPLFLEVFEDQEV
Excerpt: as §1

B42-RAR LBD = experiment: Yeast two-hybrid assay, LexA-NCD bait with prey B42-RAR LBD; assay type: cell-based, human; conditions: cognate ligand, FIG. 11
Sequence of B42-RAR LBD (P10276 183-417 limits assumed): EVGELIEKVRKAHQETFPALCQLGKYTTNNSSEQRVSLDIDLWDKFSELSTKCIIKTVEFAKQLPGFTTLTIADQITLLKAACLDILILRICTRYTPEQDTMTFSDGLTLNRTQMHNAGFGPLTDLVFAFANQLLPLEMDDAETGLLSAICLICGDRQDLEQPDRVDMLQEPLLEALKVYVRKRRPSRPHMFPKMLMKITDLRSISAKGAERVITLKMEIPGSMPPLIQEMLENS
Protocol: The following receptor baits were used: LexA-cTRα LBD, LexA-hTRβ LBD, LexA-hRARα LBD, LexA-hRXRα LBD, and LexA-hGR LBD. The NRIF3 C-terminal domain (NCD) was fused in frame with the LexA DBD and examined for interaction with receptor LBDs using the following preys: B42-cTRα LBD, B42-hRARα LBD, and B42-hRXRα LBD expressed from pJG4-5. Yeast cells harboring appropriate plasmids were grown in selective media with Gal/Raf in the presence or absence of cognate ligand (1 μM T3 for TR, all trans or 9-cis RA for RAR, 9-cis RA for RXR, and 10 μM deoxycorticosterone for GR) overnight before β-galactosidase activity was assayed using o-Nitrophenyl β-D-Galactopyranoside as the substrate. β-galactosidase units are expressed as (O.D. 420 nm×1000)/(minutes of incubation×O.D. 600 nm of yeast suspension).
To construct the bait plasmid expressing LexA-NCD, a derivative of pEG202 (which contains a new polylinker) plasmid was digested with NcoI and XhoI and ligated to synthetic oligonucleotides that encode the last 16 amino acids of NRIF3 (residues 162-177). Similarly, mutant NCD was generated by using oligonucleotides that contain the designed mutations in the ligation reaction. All constructs were confirmed by sequence analysis. […]

LexA-RXR = LexA-RXR (Homo sapiens, UniProt P19793); conditions: yeast two-hybrid, 1 μM 9-cis RA, FIG. 8B
Sequence of LexA-RXR (P19793 227-462): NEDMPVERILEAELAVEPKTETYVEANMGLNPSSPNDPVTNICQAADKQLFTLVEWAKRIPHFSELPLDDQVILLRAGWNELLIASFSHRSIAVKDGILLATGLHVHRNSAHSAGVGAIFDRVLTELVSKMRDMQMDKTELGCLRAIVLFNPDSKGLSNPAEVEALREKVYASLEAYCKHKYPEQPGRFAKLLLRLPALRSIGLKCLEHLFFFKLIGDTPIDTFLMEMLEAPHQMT

[1] = system: receptor-mediated transcription; experiment: Transfection studies with endonexins (data not shown); assay type: cell-based
Excerpt: as §1

LexA-TR = LexA-TR (Gallus gallus, UniProt P04625); conditions: yeast two-hybrid, 1 μM T3, FIG. 8B

C/C(=C\c1ccc(C(=O)O)cc1)c1ccc2c(c1)C(C)(C)CCC2(C)C [TTNPB]
activation of the IR-ΔMTV-CAT reporter by ligand (endogenous RAR(s)): activates

CBP: reported co-activator for nuclear receptors, used as a control
enhancement of TR-mediated activation of the CAT reporter (cTRα): around 3 fold

NCD: C-terminal domain of NRIF3, amino acids 162-177; docked as 17-residue peptide KASRHLDSYEFLKAILN (SEQ ID NO:7) (C-terminal peptide of NRIF3)
interaction with the LBD of RAR (B42-RAR LBD): interact efficiently

B1: EnL: β3-endonexin long form, 170 amino acids, alternatively spliced product of the same gene as NRIF3 (protein)
chain: MPVKRSLKLDGLLEENSFDPSKITRKKSVITYSPTTGTCQMSLFASPTSSEEQKHRNGLSNEKRKKLNHPSLTESKESTTKDNDEFMMLLSKVEKLSEEIMEIMQNLSSIQALEGSRELENLIGISCASHFLKREMQKTKELMTKVNKQKLFEKSTGLPHKGQPQMSPQL
interaction with liganded RXR (LexA-RXR): completely abolished | effect on receptor-mediated transcription [1]: little effect | interaction with liganded TR (LexA-TR): completely abolished

B2: EnS: β3-endonexin short form, 111 amino acids, identical to the first 111 residues of NRIF3 (protein)
chain: MPVKRSLKLDGLLEENSFDPSKITRKKSVITYSPTTGTCQMSLFASPTSSEEQKHRNGLSNEKRKKLNHPSLTESKESTTKDNDEFMMLLSKVEKLSEEIMEIMQNLSSIQ
interaction with liganded RXR (LexA-RXR): completely abolished | effect on receptor-mediated transcription [1]: little effect | interaction with liganded TR (LexA-TR): completely abolished
